From article PMC5343618, “Multimer recognition and secretion by the non-classical secretion pathway in Bacillus subtilis” (Scientific Reports, 2017)

Molecular target: the molecule itself
Assay: native gel or EMSA; blue native PAGE (BN-PAGE) of the soluble cytoplasmic fraction and the culture supernatant of B. subtilis after 24 h of cultivation; non-reducing sample buffer, Coomassie blue; mass estimated within ±15%

Protein | stoichiometry N
general stress protein (YceD) (natural protein, B. subtilis 168, UniProt P80875 1-193, looked up, general stress protein YceD, B. subtilis; gene amplified from B. subtilis 168 chromosomal DNA; Seen as monomer and as dimer; source: B. subtilis 1A751, overexpressed from a pMAR-derived plasmid; cytoplasmic fraction and culture supernatant, not purified) MTISLAKGQKVDLTKTNPGLSKVVVGLGWDTNKYDGGHDFDLDSSVFLLDAAGKCASPNDFIFYNQLEGGNGSVVHSGDNLTGAGEGDDENVKVNLSAVPANIDKISFVITIHDAEARSQNFGQVSNAFVRIVNEETNEELIRYDLAEDFSIETAIIAGELYRHNGEWKFSAIGSGYQGGLARIATDYGLQVG | 2
fructose 1,6-bisphosphate aldolase (FbaA) (enzyme, B. subtilis 168, UniProt P13243 1-285, looked up, fructose 1,6-bisphosphate aldolase (FbaA), B. subtilis; gene amplified from B. subtilis 168 chromosomal DNA; source: B. subtilis 1A751, overexpressed from a pMAR-derived plasmid; cytoplasmic fraction and culture supernatant, not purified) MPLVSMTEMLNTAKEKGYAVGQFNLNNLEFTQAILQAAEEEKSPVILGVSEGAGRYMGGFKTVVAMVKALMEEYKVTVPVAIHLDHGSSFESCAKAIHAGFTSVMIDASHHPFEENVATTAKVVELAHFHGVSVEAELGTVGGQEDDVIAEGVIYADPKECQELVERTGIDCLAPALGSVHGPYKGEPNLGFKEMEEIGKSTGLPLVLHGGTGIPTADIKKSISLGTAKINVNTENQISSAKAVRETLAAKPDEYDPRKYLGPAREAIKETVIGKMREFGSSNQA | 5
transaldolase (YwjH) (enzyme, B. subtilis 168, UniProt P19669 1-212, looked up, transaldolase (YwjH), B. subtilis; gene amplified from B. subtilis 168 chromosomal DNA; source: B. subtilis 1A751, overexpressed from a pMAR-derived plasmid; cytoplasmic fraction and culture supernatant, not purified) MLFFVDTANIDEIREANELGILAGVTTNPSLVAKEANVSFHDRLREITDVVKGSVSAEVISLKAEEMIEEGKELAKIAPNITVKIPMTSDGLKAVRALTDLGIKTNVTLIFNANQALLAARAGATYVSPFLGRLDDIGHNGLDLISEVKQIFDIHGLDTQIIAASIRHPQHVTEAALRGAHIGTMPLKVIHALTKHPLTDKGIEQFLADWNK | 7
1-pyrroline-5-carboxylate dehydrogenase (YcgN) (enzyme, B. subtilis 168, UniProt P94391 1-515, looked up, 1-pyrroline-5-carboxylate dehydrogenase (YcgN), B. subtilis; gene amplified from B. subtilis 168 chromosomal DNA; source: B. subtilis 1A751, overexpressed from a pMAR-derived plasmid; cytoplasmic fraction and culture supernatant, not purified) MTTPYKHEPFTNFQDQNNVEAFKKALATVSEYLGKDYPLVINGERVETEAKIVSINPADKEEVVGRVSKASQEHAEQAIQAAAKAFEEWRYTSPEERAAVLFRAAAKVRRRKHEFSALLVKEAGKPWNEADADTAEAIDFMEYYARQMIELAKGKPVNSREGEKNQYVYTPTGVTVVIPPWNFLFAIMAGTTVAPIVTGNTVVLKPASATPVIAAKFVEVLEESGLPKGVVNFVPGSGAEVGDYLVDHPKTSLITFTGSREVGTRIFERAAKVQPGQQHLKRVIAEMGGKDTVVVDEDADIELAAQSIFTSAFGFAGQKCSAGSRAVVHEKVYDQVLERVIEITESKVTAKPDSADVYMGPVIDQGSYDKIMSYIEIGKQEGRLVSGGTGDDSKGYFIKPTIFADLDPKARLMQEEIFGPVVAFCKVSDFDEALEVANNTEYGLTGAVITNNRKHIERAKQEFHVGNLYFNRNCTGAIVGYHPFGGFKMSGTDSKAGGPDYLALHMQAKTISEMF | 4
superoxide dismutase (SodA) (enzyme, B. subtilis 168, UniProt P54375 1-202, looked up, superoxide dismutase (SodA), B. subtilis; gene amplified from B. subtilis 168 chromosomal DNA; source: B. subtilis 1A751, overexpressed from a pMAR-derived plasmid; cytoplasmic fraction and culture supernatant, not purified) MAYELPELPYAYDALEPHIDKETMTIHHTKHHNTYVTNLNKAVEGNTALANKSVEELVADLDSVPENIRTAVRNNGGGHANHKLFWTLLSPNGGGEPTGALAEEINSVFGSFDKFKEQFAAAAAGRFGSGWAWLVVNNGKLEITSTPNQDSPLSEGKTPILGLDVWEHAYYLNYQNRRPDYISAFWNVVNWDEVARLYSEAK | 2
arginase (RocF) (enzyme, B. subtilis 168, UniProt P39138 1-296, looked up, arginase (RocF), B. subtilis; gene amplified from B. subtilis 168 chromosomal DNA; source: B. subtilis 1A751, overexpressed from a pMAR-derived plasmid; cytoplasmic fraction and culture supernatant, not purified) MDKTISVIGMPMDLGQARRGVDMGPSAIRYAHLIERLSDMGYTVEDLGDIPINREKIKNDEELKNLNSVLAGNEKLAQKVNKVIEEKKFPLVLGGDHSIAIGTLAGTAKHYDNLGVIWYDAHGDLNTLETSPSGNIHGMPLAVSLGIGHESLVNLEGYAPKIKPENVVIIGARSLDEGERKYIKESGMKVYTMHEIDRLGMTKVIEETLDYLSACDGVHLSLDLDGLDPNDAPGVGTPVVGGISYRESHLAMEMLYDAGIITSAEFVEVNPILDHKNKTGKTAVELVESLLGKKLL | 5
molecular chaperone (GroEL) (natural protein, B. subtilis 168, UniProt P28598 1-544, looked up, molecular chaperone GroEL, B. subtilis; gene amplified from B. subtilis 168 chromosomal DNA; source: B. subtilis 1A751, overexpressed from a pMAR-derived plasmid; cytoplasmic fraction and culture supernatant, not purified) MAKEIKFSEEARRAMLRGVDALADAVKVTLGPKGRNVVLEKKFGSPLITNDGVTIAKEIELEDAFENMGAKLVAEVASKTNDVAGDGTTTATVLAQAMIREGLKNVTAGANPVGVRKGMEQAVAVAIENLKEISKPIEGKESIAQVAAISAADEEVGSLIAEAMERVGNDGVITIEESKGFTTELEVVEGMQFDRGYASPYMVTDSDKMEAVLDNPYILITDKKITNIQEILPVLEQVVQQGKPLLLIAEDVEGEALATLVVNKLRGTFNAVAVKAPGFGDRRKAMLEDIAVLTGGEVITEDLGLDLKSTQIAQLGRASKVVVTKENTTIVEGAGETDKISARVTQIRAQVEETTSEFDREKLQERLAKLAGGVAVIKVGAATETELKERKLRIEDALNSTRAAVEEGIVSGGGTALVNVYNKVAAVEAEGDAQTGINIVLRALEEPIRQIAHNAGLEGSVIVERLKNEEIGVGFNAATGEWVNMIEKGIVDPTKVTRSALQNAASVAAMFLTTEAVVADKPEENGGGAGMPDMGGMGGMGGMM | 2
glyceraldehyde 3-phosphate dehydrogenase (GapA) (enzyme, B. subtilis 168, UniProt P09124 1-335, looked up, glyceraldehyde 3-phosphate dehydrogenase (GapA), B. subtilis; gene amplified from B. subtilis 168 chromosomal DNA; source: B. subtilis 1A751, overexpressed from a pMAR-derived plasmid; cytoplasmic fraction and culture supernatant, not purified) MAVKVGINGFGRIGRNVFRAALNNPEVEVVAVNDLTDANMLAHLLQYDSVHGKLDAEVSVDGNNLVVNGKTIEVSAERDPAKLSWGKQGVEIVVESTGFFTKRADAAKHLEAGAKKVIISAPANEEDITIVMGVNEDKYDAANHDVISNASCTTNCLAPFAKVLNDKFGIKRGMMTTVHSYTNDQQILDLPHKDYRRARAAAENIIPTSTGAAKAVSLVLPELKGKLNGGAMRVPTPNVSLVDLVAELNQEVTAEEVNAALKEAAEGDLKGILGYSEEPLVSGDYNGNKNSSTIDALSTMVMEGSMVKVISWYDNESGYSNRVVDLAAYIAKKGL | 3
pyruvate dehydrogenase PdhD (enzyme, B. subtilis 168, UniProt P21880 1-470, looked up, pyruvate dehydrogenase PdhD, B. subtilis; gene amplified from B. subtilis 168 chromosomal DNA; source: B. subtilis 1A751, overexpressed from a pMAR-derived plasmid; cytoplasmic fraction and culture supernatant, not purified) MVVGDFPIETDTLVIGAGPGGYVAAIRAAQLGQKVTVVEKATLGGVCLNVGCIPSKALINAGHRYENAKHSDDMGITAENVTVDFTKVQEWKASVVNKLTGGVAGLLKGNKVDVVKGEAYFVDSNSVRVMDENSAQTYTFKNAIIATGSRPIELPNFKYSERVLNSTGALALKEIPKKLVVIGGGYIGTELGTAYANFGTELVILEGGDEILPGFEKQMSSLVTRRLKKKGNVEIHTNAMAKGVEERPDGVTVTFEVKGEEKTVDADYVLITVGRRPNTDELGLEQVGIEMTDRGIVKTDKQCRTNVPNIYAIGDIIEGPPLAHKASYEGKIAAEAIAGEPAEIDYLGIPAVVFSEPELASVGYTEAQAKEEGLDIVAAKFPFAANGRALSLNETDGFMKLITRKEDGLVIGAQIAGASASDMISELSLAIEGGMTAEDIAMTIHAHPTLGEITMEAAEVAIGSPIHIVK | 2
vegetative catalase (KatA) (enzyme, B. subtilis 168, UniProt P26901 1-483, looked up, vegetative catalase (KatA), B. subtilis; gene amplified from B. subtilis 168 chromosomal DNA; source: B. subtilis 1A751, overexpressed from a pMAR-derived plasmid; cytoplasmic fraction and culture supernatant, not purified) MSSNKLTTSWGAPVGDNQNSMTAGSRGPTLIQDVHLLEKLAHFNRERVPERVVHAKGAGAHGYFEVTNDVTKYTKAAFLSEVGKRTPLFIRFSTVAGELGSADTVRDPRGFAVKFYTEEGNYDIVGNNTPVFFIRDAIKFPDFIHTQKRDPKTHLKNPTAVWDFWSLSPESLHQVTILMSDRGIPATLRHMHGFGSHTFKWTNAEGEGVWIKYHFKTEQGVKNLDVNTAAKIAGENPDYHTEDLFNAIENGDYPAWKLYVQIMPLEDANTYRFDPFDVTKVWSQKDYPLIEVGRMVLDRNPENYFAEVEQATFSPGTLVPGIDVSPDKMLQGRLFAYHDAHRYRVGANHQALPINRARNKVNNYQRDGQMRFDDNGGGSVYYEPNSFGGPKESPEDKQAAYPVQGIADSVSYDHYDHYTQAGDLYRLMSEDERTRLVENIVNAMKPVEKEEIKLRQIEHFYKADPEYGKRVAEGLGLPIKKDS | 4
